Experimental data taken from patent US20160297857A1.

Target: PA1b-binding site
Experiment: ligand binding assay with 125I-labeled toxin

| Binder | Ki |
| --- | --- |
| ASCNGVCSPFEMPPCGTSACRCIPVGLVIGYCRNPSG [PA1b polypeptide of Pisum sativum] | 0.017 µM |
| ADCSGICSPFEMPPCRSSDCRCIPIALIGGFCINPIS [AS37] | 0.015 µM |
| ASCPNVGAVCSPFETKPCGNVKDCRCLPWGLFFGTCINPTG [AG41] | 0.0013 µM |
| DECWGPCSVLQTPPCPLSKCYCIPLFLVVGYCSHASS [DS37] | 0.694 µM |
| EFCSSVGSFCSPFNTNPCGYLGNCRCVPYYLYGGTCENPFG [EG41] | 0.0728 µM |
| AKCGEACDTQFNFCNAGDGCRCFITDAYLTLPGFCAQLST [AS40] | 0.0103 µM |
